Assay results: PMC6381275, “Structure and Mechanism of LcpA, a Phosphotransferase That Mediates Glycosylation of a Gram-Positive Bacterial Cell Wall-Anchored Protein” (mBio, 2019)

Test system: CC(C)=CCC/C(C)=C/CC/C(C)=C/CO[P@@](=O)(O)OP(=O)(O)O
Assay: fluorometric inorganic phosphate release assay (pyrophosphatase)
Type: biochemical, Actinomyces oris
Details: 20 mM Tris-HCl pH 8.0, 30°C, 24 h, 3 µM enzyme, 0-150 µM FPP

Substance: LcpA (eLcpA, recombinant extracellular LCP domain) (Actinomyces oris)
- Km: 15.2 ± 3.7 µM
